Starred links: 1 amine or outer side, 2 acyl side, 3 side chain; linkers in the order of their positions; H or OH if unused. Non-standard residues stand in square brackets, D forms with d. Groups on a side chain read outwards from the residue. Primed or numbered codes have the meaning given here. No end group written: not given here. *: point of attachment. γGlu = O=C(O)[C@H](CCC(=O)[*:2])N[*:1]; Stearoyl = CCCCCCCCCCCCCCCCCC(=O)*; αMeF = C[C@](N)(Cc1ccccc1)C(=O)O; αMeK = C[C@](N)(CCCCN)C(=O)O; Lauroyl = CCCCCCCCCCCC(=O)*; αMeS = C[C@](N)(CO)C(=O)O; PEG2′ = not defined here; Aib = CC(C)(N)C(=O)O; Ahx = NCCCCCC(=O)O
T1: glucose-dependent insulinotropic peptide (gastric inhibitory polypeptide) receptor (GIPR) (human, UniProt P48546 22-466)
T1 sequence (looked up): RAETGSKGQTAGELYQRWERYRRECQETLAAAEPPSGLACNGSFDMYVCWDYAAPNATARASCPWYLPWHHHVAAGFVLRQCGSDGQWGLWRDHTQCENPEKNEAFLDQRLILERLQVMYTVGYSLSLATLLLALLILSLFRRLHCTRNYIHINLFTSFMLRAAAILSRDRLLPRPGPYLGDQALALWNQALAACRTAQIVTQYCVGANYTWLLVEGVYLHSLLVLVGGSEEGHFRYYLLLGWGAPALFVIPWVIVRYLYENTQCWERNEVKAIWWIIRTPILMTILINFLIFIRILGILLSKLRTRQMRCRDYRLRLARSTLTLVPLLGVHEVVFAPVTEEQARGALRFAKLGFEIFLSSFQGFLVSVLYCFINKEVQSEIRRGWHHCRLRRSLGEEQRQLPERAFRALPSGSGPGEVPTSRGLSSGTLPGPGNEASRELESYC

B1: SEQ ID NO 165 (peptide)
peptide: H[Aib]EGS[αMeF]TSDV[αMeS]S[αMeF]LEGEAA[αMeK]E[αMeF]IA[αMeF]VVK([γGlu-γGlu-Lauroyl])GG-NH2
modifications: N-terminus assumed
SMILES: CCCCCCCCCCCC(=O)N[C@@H](CCC(=O)N[C@@H](CCC(=O)NCCCC[C@H](NC(=O)[C@@H](NC(=O)[C@@H](NC(=O)[C@](C)(Cc1ccccc1)NC(=O)[C@H](C)NC(=O)[C@@H](NC(=O)[C@](C)(Cc1ccccc1)NC(=O)[C@H](CCC(=O)O)NC(=O)[C@](C)(CCCCN)NC(=O)[C@H](C)NC(=O)[C@H](C)NC(=O)[C@H](CCC(=O)O)NC(=O)CNC(=O)[C@H](CCC(=O)O)NC(=O)[C@H](CC(C)C)NC(=O)[C@](C)(Cc1ccccc1)NC(=O)[C@H](CO)NC(=O)[C@](C)(CO)NC(=O)[C@@H](NC(=O)[C@H](CC(=O)O)NC(=O)[C@H](CO)NC(=O)[C@@H](NC(=O)[C@](C)(Cc1ccccc1)NC(=O)[C@H](CO)NC(=O)CNC(=O)[C@H](CCC(=O)O)NC(=O)C(C)(C)NC(=O)[C@@H](N)Cc1c[nH]cn1)[C@@H](C)O)C(C)C)[C@@H](C)CC)C(C)C)C(C)C)C(=O)NCC(=O)NCC(N)=O)C(=O)O)C(=O)O
B2: SEQ ID NO 159 (peptide)
peptide: H[Aib]EGS[αMeF]TSDV[αMeS]S[αMeF]LEGEAAK([Ahx-Ahx-Stearoyl])E[αMeF]IA[αMeF]VV[αMeK]GG-NH2
modifications: N-terminus assumed
SMILES: CCCCCCCCCCCCCCCCCC(=O)NCCCCCC(=O)NCCCCCC(=O)NCCCC[C@H](NC(=O)[C@H](C)NC(=O)[C@H](C)NC(=O)[C@H](CCC(=O)O)NC(=O)CNC(=O)[C@H](CCC(=O)O)NC(=O)[C@H](CC(C)C)NC(=O)[C@](C)(Cc1ccccc1)NC(=O)[C@H](CO)NC(=O)[C@](C)(CO)NC(=O)[C@@H](NC(=O)[C@H](CC(=O)O)NC(=O)[C@H](CO)NC(=O)[C@@H](NC(=O)[C@](C)(Cc1ccccc1)NC(=O)[C@H](CO)NC(=O)CNC(=O)[C@H](CCC(=O)O)NC(=O)C(C)(C)NC(=O)[C@@H](N)Cc1c[nH]cn1)[C@@H](C)O)C(C)C)C(=O)N[C@@H](CCC(=O)O)C(=O)N[C@@](C)(Cc1ccccc1)C(=O)N[C@H](C(=O)N[C@@H](C)C(=O)N[C@@](C)(Cc1ccccc1)C(=O)N[C@H](C(=O)N[C@H](C(=O)N[C@@](C)(CCCCN)C(=O)NCC(=O)NCC(N)=O)C(C)C)C(C)C)[C@@H](C)CC
B3: SEQ ID NO 160 (peptide)
peptide: H[Aib]EGS[αMeF]TSDV[αMeS]S[αMeF]LEGEAAK([Ahx-Ahx-Ahx-Stearoyl])E[αMeF]IA[αMeF]VV[αMeK]GG-NH2
modifications: N-terminus assumed
SMILES: CCCCCCCCCCCCCCCCCC(=O)NCCCCCC(=O)NCCCCCC(=O)NCCCCCC(=O)NCCCC[C@H](NC(=O)[C@H](C)NC(=O)[C@H](C)NC(=O)[C@H](CCC(=O)O)NC(=O)CNC(=O)[C@H](CCC(=O)O)NC(=O)[C@H](CC(C)C)NC(=O)[C@](C)(Cc1ccccc1)NC(=O)[C@H](CO)NC(=O)[C@](C)(CO)NC(=O)[C@@H](NC(=O)[C@H](CC(=O)O)NC(=O)[C@H](CO)NC(=O)[C@@H](NC(=O)[C@](C)(Cc1ccccc1)NC(=O)[C@H](CO)NC(=O)CNC(=O)[C@H](CCC(=O)O)NC(=O)C(C)(C)NC(=O)[C@@H](N)Cc1c[nH]cn1)[C@@H](C)O)C(C)C)C(=O)N[C@@H](CCC(=O)O)C(=O)N[C@@](C)(Cc1ccccc1)C(=O)N[C@H](C(=O)N[C@@H](C)C(=O)N[C@@](C)(Cc1ccccc1)C(=O)N[C@H](C(=O)N[C@H](C(=O)N[C@@](C)(CCCCN)C(=O)NCC(=O)NCC(N)=O)C(C)C)C(C)C)[C@@H](C)CC
B4: SEQ ID NO 164 (peptide)
peptide: H[Aib]EGS[αMeF]TSDV[αMeS]S[αMeF]LEGEAA[αMeK]E[αMeF]IA[αMeF]VVK([γGlu-Lauroyl])GG-NH2
modifications: N-terminus assumed
SMILES: CCCCCCCCCCCC(=O)N[C@@H](CCC(=O)NCCCC[C@H](NC(=O)[C@@H](NC(=O)[C@@H](NC(=O)[C@](C)(Cc1ccccc1)NC(=O)[C@H](C)NC(=O)[C@@H](NC(=O)[C@](C)(Cc1ccccc1)NC(=O)[C@H](CCC(=O)O)NC(=O)[C@](C)(CCCCN)NC(=O)[C@H](C)NC(=O)[C@H](C)NC(=O)[C@H](CCC(=O)O)NC(=O)CNC(=O)[C@H](CCC(=O)O)NC(=O)[C@H](CC(C)C)NC(=O)[C@](C)(Cc1ccccc1)NC(=O)[C@H](CO)NC(=O)[C@](C)(CO)NC(=O)[C@@H](NC(=O)[C@H](CC(=O)O)NC(=O)[C@H](CO)NC(=O)[C@@H](NC(=O)[C@](C)(Cc1ccccc1)NC(=O)[C@H](CO)NC(=O)CNC(=O)[C@H](CCC(=O)O)NC(=O)C(C)(C)NC(=O)[C@@H](N)Cc1c[nH]cn1)[C@@H](C)O)C(C)C)[C@@H](C)CC)C(C)C)C(C)C)C(=O)NCC(=O)NCC(N)=O)C(=O)O

Molecular target: GLP-1 receptor (GLP-1R) (human, UniProt P43220 24-463)
Test: cell-based or functional assay

Primary assay EC50 (cAMP), GLP-1R n1 [nM]	Primary assay EC50 (cAMP), GLP-1R n2 [nM]	Primary assay EC50 (cAMP), Mean pM GLP-1R [pM]	Binder
0.16	0.062	112	H[Aib]EGS[αMeF]TSDV[αMeS]S[αMeF]LEGEAAK([PEG2′-Stearoyl])E[αMeF]IA[αMeF]VV[αMeK]GG-NH2 [SEQ ID NO 161]
0.014	0.006	10.2	B1
0.063	0.049	56	H[Aib]EGS[αMeF]TSDV[αMeS]S[αMeF]LEGEAAK([PEG2′-PEG2′-PEG2′-Stearoyl])E[αMeF]IA[αMeF]VV[αMeK]GG-NH2 [SEQ ID NO 163]
0.053	0.055	54	H[Aib]EGS[αMeF]TSDV[αMeS]S[αMeF]LEGEAAK([PEG2′-PEG2′-Stearoyl])E[αMeF]IA[αMeF]VV[αMeK]GG-NH2 [SEQ ID NO 162]
0.28	0.23	254	B2
0.39	0.32	350	B3
0.022	0.0078	14.6	B4

Molecular target: glucagon receptor (GCGR) (human, UniProt P47871 26-477)
Test: cell-based or functional assay

glucagon receptor (GCGR), sequence (P47871 26-477): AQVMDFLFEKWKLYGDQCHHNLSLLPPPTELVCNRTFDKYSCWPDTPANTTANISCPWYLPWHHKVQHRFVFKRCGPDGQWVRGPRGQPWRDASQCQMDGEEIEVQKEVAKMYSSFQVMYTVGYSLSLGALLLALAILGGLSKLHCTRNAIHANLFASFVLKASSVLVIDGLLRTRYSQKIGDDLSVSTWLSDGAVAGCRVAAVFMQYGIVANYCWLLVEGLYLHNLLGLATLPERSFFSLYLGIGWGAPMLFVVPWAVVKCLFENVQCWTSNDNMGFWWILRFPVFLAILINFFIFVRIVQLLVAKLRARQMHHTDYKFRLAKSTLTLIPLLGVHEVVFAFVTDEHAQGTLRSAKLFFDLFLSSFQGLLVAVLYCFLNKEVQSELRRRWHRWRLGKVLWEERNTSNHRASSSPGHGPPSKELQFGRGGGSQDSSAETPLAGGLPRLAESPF

Primary assay EC50 (cAMP), Gluc-R, first run [nM]	Primary assay EC50 (cAMP), Gluc-R, second run [nM]	Binder
27	27	H[Aib]EGS[αMeF]TSDV[αMeS]S[αMeF]LEGEAAK([PEG2′-Stearoyl])E[αMeF]IA[αMeF]VV[αMeK]GG-NH2 [SEQ ID NO 161]
27	27	B1
25	25	H[Aib]EGS[αMeF]TSDV[αMeS]S[αMeF]LEGEAAK([PEG2′-PEG2′-PEG2′-Stearoyl])E[αMeF]IA[αMeF]VV[αMeK]GG-NH2 [SEQ ID NO 163]
26	26	H[Aib]EGS[αMeF]TSDV[αMeS]S[αMeF]LEGEAAK([PEG2′-PEG2′-Stearoyl])E[αMeF]IA[αMeF]VV[αMeK]GG-NH2 [SEQ ID NO 162]
27	27	B2
26	26	B3
28	28	B4

Molecular target: T1, glucose-dependent insulinotropic …
Test: cell-based or functional assay

Primary assay EC50 (cAMP), GIP-R, first run [nM]	Primary assay EC50 (cAMP), GIP-R, second run [nM]	Binder
27	27	H[Aib]EGS[αMeF]TSDV[αMeS]S[αMeF]LEGEAAK([PEG2′-Stearoyl])E[αMeF]IA[αMeF]VV[αMeK]GG-NH2 [SEQ ID NO 161]
27	27	B1
25	25	H[Aib]EGS[αMeF]TSDV[αMeS]S[αMeF]LEGEAAK([PEG2′-PEG2′-PEG2′-Stearoyl])E[αMeF]IA[αMeF]VV[αMeK]GG-NH2 [SEQ ID NO 163]
26	26	H[Aib]EGS[αMeF]TSDV[αMeS]S[αMeF]LEGEAAK([PEG2′-PEG2′-Stearoyl])E[αMeF]IA[αMeF]VV[αMeK]GG-NH2 [SEQ ID NO 162]
27	27	B2
26	26	B3
28	28	B4
